Experimental data reported in the Human Domainome abundance scans (Beltran et al. 2025).
± gives the uncertainty stated by the source.

B1: Ankyrin-3, residues 4094 to 4171; numbered along this chain, Q12955 (parent)
chain: MAIVADHLGLSWTELARELNFSVDEINQIRVENPNSLISQSFMLLKKWVTRDGKNATTDALTSVLTKINRIDIVTLLE

Variants of: B1
Experiment: abundance fitness (aPCA) (normalised: wild type 0, dead -1); higher = more abundant; growth selection in yeast, the domain comes from the species named
Settings: Homo sapiens

| Variant | abundance fitness |
| --- | --- |
| E18I | -0.721 ± 0.22 |
| E18V | -0.148 ± 0.053 |
| E18F | -0.451 ± 0.13 |
| E18K | -0.532 ± 0.3 |
| E18R | -1.09 ± 0.21 |
| E18G | -0.455 ± 0.053 |
| E18H | -0.317 ± 0.15 |
| E18A | -0.187 ± 0.053 |
| E18D | -0.614 ± 0.3 |
| E18T | -0.427 ± 0.17 |
| E18S | -0.625 ± 0.095 |
| E18C | -0.531 ± 0.12 |
| E18Y | -0.605 ± 0.17 |
| E18M | -0.339 ± 0.16 |
| E18Q | -0.388 ± 0.18 |
| A5T | -0.774 ± 0.18 |
| A5R | -0.498 ± 0.076 |
| A5K | -0.648 ± 0.18 |
| A5V | -0.484 ± 0.068 |
| A5C | -0.359 ± 0.12 |
| A5L | -0.921 ± 0.19 |
| A5Y | -0.745 ± 0.34 |
| A5I | -0.74 ± 0.31 |
| A5W | -0.765 ± 0.13 |

| Variant | abundance fitness |
| --- | --- |
| A5H | -0.716 ± 0.43 |
| A5P | -0.899 ± 0.26 |
| A2H | -0.033 ± 0.077 |
| A2E | 0.224 ± 0.084 |
| A2W | 0.169 ± 0.077 |
| A2Y | -0.037 ± 0.21 |
| A2L | -0.126 ± 0.067 |
| A2Q | 0.058 ± 0.072 |
| A2D | 0.173 ± 0.074 |
| A2M | -0.175 ± 0.1 |
| A2C | -0.077 ± 0.1 |
| A2G | 0.14 ± 0.051 |
| A2F | -0.035 ± 0.11 |
| A2K | -0.095 ± 0.2 |
| A2N | 0.08 ± 0.16 |
| A2T | 0.077 ± 0.06 |
| A2V | -0.146 ± 0.049 |
| A2P | -0.193 ± 0.057 |
| A2R | 0.149 ± 0.044 |
| E14P | -0.583 ± 0.09 |
| E14M | -0.185 ± 0.094 |
| E14L | -0.306 ± 0.065 |
| E14Q | -0.02 ± 0.056 |
| E14A | -0.082 ± 0.068 |

| Variant | abundance fitness |
| --- | --- |
| E14W | -0.469 ± 0.14 |
| E14H | -0.156 ± 0.12 |
| E14Y | -0.432 ± 0.15 |
| E14G | -0.426 ± 0.063 |
| E14V | -0.02 ± 0.057 |
| E14K | -0.347 ± 0.15 |
| E14S | -0.098 ± 0.057 |
| E14R | -0.289 ± 0.05 |
| E14D | -0.074 ± 0.085 |
| E14C | -0.23 ± 0.14 |
| E14T | -0.198 ± 0.086 |
| E14I | -0.278 ± 0.14 |
| W12T | -1.1 ± 0.43 |
| W12A | -0.862 ± 0.16 |
| W12E | -0.903 ± 0.2 |
| W12R | -0.844 ± 0.12 |
| W12L | -0.838 ± 0.11 |
| W12I | -0.738 ± 0.26 |
| W12C | -0.931 ± 0.28 |
| W12V | -0.753 ± 0.11 |
| W12S | -0.968 ± 0.15 |
| W12Q | -0.534 ± 0.3 |
| W12P | -0.433 ± 0.11 |
| W12M | -0.844 ± 0.25 |

| Variant | abundance fitness |
| --- | --- |
| I3K | -0.27 ± 0.11 |
| I3Y | -0.486 ± 0.16 |
| I3V | -0.05 ± 0.053 |
| I3Q | -0.33 ± 0.076 |
| I3E | -0.342 ± 0.083 |
| I3C | -0.225 ± 0.12 |
| I3H | -0.523 ± 0.17 |
| I3P | -0.46 ± 0.087 |
| I3S | -0.411 ± 0.062 |
| I3D | -0.489 ± 0.16 |
| I3G | -0.506 ± 0.06 |
| I3L | -0.027 ± 0.051 |
| I3M | -0.081 ± 0.096 |
| I3R | -0.321 ± 0.05 |
| H7A | -0.11 ± 0.051 |
| H7D | -0.796 ± 0.22 |
| H7S | -0.358 ± 0.065 |
| H7N | -0.292 ± 0.15 |
| H7Y | -0.444 ± 0.13 |
| H7G | -0.705 ± 0.062 |
| H7P | -0.881 ± 0.11 |
| H7C | -0.637 ± 0.13 |
| H7E | 0.011 ± 0.074 |
| H7L | -0.366 ± 0.055 |

| Variant | abundance fitness |
| --- | --- |
| H7V | -0.202 ± 0.057 |
| H7W | -0.802 ± 0.21 |
| H7R | -0.05 ± 0.048 |
| H7I | -0.642 ± 0.26 |
| H7Q | -0.043 ± 0.066 |
| H7M | -0.12 ± 0.085 |
| H7F | -0.521 ± 0.22 |
| H7K | -0.016 ± 0.1 |
| H7T | -0.175 ± 0.069 |
| T13V | -0.041 ± 0.055 |
| T13C | -0.546 ± 0.14 |
| T13P | 0.101 ± 0.058 |
| T13H | -0.178 ± 0.11 |
| T13M | -0.054 ± 0.071 |
| T13K | -0.554 ± 0.21 |
| T13I | -0.02 ± 0.1 |
| T13S | -0.078 ± 0.057 |
| T13D | -0.35 ± 0.18 |
| T13N | -0.309 ± 0.19 |
| T13A | -0.153 ± 0.064 |
| T13G | -0.417 ± 0.062 |
| T13E | 0.005 ± 0.084 |
| T13L | -0.104 ± 0.049 |
| T13W | -0.707 ± 0.1 |

| Variant | abundance fitness |
| --- | --- |
| T13Q | -0.201 ± 0.11 |
| V23F | -0.142 ± 0.092 |
| V23L | -0.048 ± 0.042 |
| V23N | 0.097 ± 0.14 |
| V23C | -0.22 ± 0.1 |
| V23Q | 0.16 ± 0.056 |
| V23H | 0.02 ± 0.12 |
| V23E | -0.04 ± 0.1 |
| V23I | -0.073 ± 0.24 |
| V23A | -0.12 ± 0.07 |
| V23R | -0.027 ± 0.044 |
| V23K | -0.142 ± 0.089 |
| V23D | -0.335 ± 0.16 |
| V23P | -0.034 ± 0.05 |
| V23G | -0.004 ± 0.068 |
| L15V | -0.039 ± 0.059 |
| L15P | -0.741 ± 0.15 |
| L15T | -0.891 ± 0.3 |
| L15M | -0.073 ± 0.084 |
| L15G | -0.93 ± 0.13 |
| L15R | -0.869 ± 0.11 |
| L15Q | -0.75 ± 0.33 |
| L15S | -0.772 ± 0.12 |
| L15E | -0.766 ± 0.18 |

| Variant | abundance fitness |
| --- | --- |
| L15C | -0.433 ± 0.13 |
| L15I | -0.387 ± 0.2 |
| L15F | -0.149 ± 0.096 |
| S22Y | -0.646 ± 0.37 |
| S22C | 0.048 ± 0.5 |
| L10C | -0.016 ± 0.089 |
| L10W | -0.101 ± 0.078 |
| L10G | -0.043 ± 0.052 |
| L10R | -0.022 ± 0.052 |
| L10Q | 0.04 ± 0.074 |
| L10H | 0.124 ± 0.079 |
| L10N | -0.133 ± 0.21 |
| L10A | -0.064 ± 0.068 |
| L10D | -0.011 ± 0.11 |
| L10E | 0.05 ± 0.071 |
| L10V | 0.029 ± 0.06 |
| L10P | -0.04 ± 0.086 |
| L10M | -0.114 ± 0.094 |
| L10Y | -0.104 ± 0.2 |
| L10T | -0.046 ± 0.079 |
| L10F | 0.032 ± 0.062 |
| L10S | 0.081 ± 0.053 |
| L10I | -0.096 ± 0.19 |
